The values below come from patent EP4640709A1 (CHIOME BIOSCIENCE INC., dated 2025).

Positions count from the first letter of the chain named. Where two headings read alike, the source gives them in different places. Some results are limits rather than exact numbers.

Broadly, the EC50 is the midpoint of the concentration-response curve. Read a low EC50 as greater potency.

Assay [1] deals with T1, human CX3CR1 (human, UniProt P49238 1-355).
T1 sequence: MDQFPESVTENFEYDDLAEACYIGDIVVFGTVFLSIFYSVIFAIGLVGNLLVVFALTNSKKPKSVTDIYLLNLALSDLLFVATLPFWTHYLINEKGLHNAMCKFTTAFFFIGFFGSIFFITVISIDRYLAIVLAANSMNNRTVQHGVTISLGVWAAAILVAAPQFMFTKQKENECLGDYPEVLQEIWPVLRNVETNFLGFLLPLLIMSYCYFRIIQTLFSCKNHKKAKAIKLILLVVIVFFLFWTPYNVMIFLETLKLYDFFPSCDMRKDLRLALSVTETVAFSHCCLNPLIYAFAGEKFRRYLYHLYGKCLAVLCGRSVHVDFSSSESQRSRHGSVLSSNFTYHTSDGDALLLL
Kind of assay: cell-based or functional assay.

The target in assay [2] is T1, human CX3CR1. In words: binding to hCX3CR1-expressing Eurofins cells.
The target of assay [3] is T1, human CX3CR1. Kind of assay: cell-based or functional assay. This is another data set of the same source.
The target in assay [4] is T2, mouse CX3CR1 (mouse, UniProt Q9Z0D9 1-354).
T2 construct: whole, on cells; Expressed on Ba/F3 cells; also called mCX3CR1
T2 sequence (looked up): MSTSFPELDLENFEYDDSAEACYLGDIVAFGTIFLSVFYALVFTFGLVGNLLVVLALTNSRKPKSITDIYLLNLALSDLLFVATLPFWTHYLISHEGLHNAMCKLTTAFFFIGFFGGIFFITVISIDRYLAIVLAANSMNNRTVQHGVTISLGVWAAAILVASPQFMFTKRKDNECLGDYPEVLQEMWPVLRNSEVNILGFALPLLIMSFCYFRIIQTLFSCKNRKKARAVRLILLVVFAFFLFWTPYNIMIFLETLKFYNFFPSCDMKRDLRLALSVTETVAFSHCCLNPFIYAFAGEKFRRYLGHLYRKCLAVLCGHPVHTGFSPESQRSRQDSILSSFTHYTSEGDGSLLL
Kind of assay: flow cytometry, CX3CR1-expressing Ba/F3 cells.

Assay [5] has as its target T3, rat CX3CR1 (rat, UniProt P35411 1-354).
T3 construct: whole, on cells; Expressed on Ba/F3 cells; also called rCX3CR1
T3 sequence (looked up): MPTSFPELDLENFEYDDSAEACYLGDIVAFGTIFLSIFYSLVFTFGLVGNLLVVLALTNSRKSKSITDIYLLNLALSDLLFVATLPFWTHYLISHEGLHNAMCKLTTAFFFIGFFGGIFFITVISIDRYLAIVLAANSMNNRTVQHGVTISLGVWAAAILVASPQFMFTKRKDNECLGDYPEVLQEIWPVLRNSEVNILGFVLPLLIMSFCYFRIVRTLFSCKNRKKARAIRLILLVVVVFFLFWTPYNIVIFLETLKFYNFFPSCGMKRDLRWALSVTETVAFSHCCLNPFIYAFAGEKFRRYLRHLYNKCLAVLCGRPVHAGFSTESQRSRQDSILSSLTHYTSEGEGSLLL
Kind of assay: flow cytometry, CX3CR1-expressing Ba/F3 cells. (Flow cytometry measures light scatter and fluorescence of single cells or particles in a stream.)

Assay [6] addresses T2, mouse CX3CR1. In words: flow cytometry, chimeric CX3CR1-expressing Ba/F3 cells.
In assay [7] the target is T4, mCX3CR1-2 (chimeric CX3CR1).
T4 construct: Whole, on Ba/F3 cells
Described as above.

For assay [8], the target named is T5, mCX3CR1-3 (chimeric CX3CR1).
T5 construct: Whole, on Ba/F3 cells
The assay is described as above.

Assay [9] deals with T6, mCX3CR1-4 (chimeric CX3CR1).
T6 construct: Whole, on Ba/F3 cells
Described as above.

Assay [10] concerns the target T1, human CX3CR1. In words: flow cytometry, binding to hCX3CR1-expressing Ba/F3 cells.
In assay [11] the target is T1, human CX3CR1. In words: flow cytometry, chimeric CX3CR1-expressing Ba/F3 cells, 200 nM, grade vs positive antibody (+++ >70%, ++ 40-70%, + 10-40%, - <10%).
For assay [12], the target named is T7, hCX3CR1-1 (chimeric CX3CR1).
T7 construct: Whole, on Ba/F3 cells
The description is as above.

For assay [13], the target named is T8, hCX3CR1-2 (chimeric CX3CR1).
T8 construct: Whole, on Ba/F3 cells
The description is as above.

Assay [14] addresses T9, hCX3CR1-3 (chimeric CX3CR1).
T9 construct: Whole, on Ba/F3 cells
The assay is described as above.

The target in assay [15] is T10, hCX3CR1-4 (chimeric CX3CR1).
T10 construct: Whole, on Ba/F3 cells
The assay is described as above.

Assay [16] deals with T11, mCX3CR1-1 (chimeric CX3CR1).
T11 construct: Whole, on Ba/F3 cells
The assay is described as above.

The target of assay [17] is T1, human CX3CR1. In words: cell-based or functional assay. The source holds these as a separate data set.
The target of assay [18] is T1, human CX3CR1. In words: flow cytometry, EC50 on hCX3CR1-expressing Ba/F3 cells, against m1F8.
The target in assay [19] is T6, mCX3CR1-4 (chimeric CX3CR1). Kind of assay: flow cytometry, chimeric CX3CR1-expressing Ba/F3 cells, 200 nM, grade vs positive antibody (+++ >70%, ++ 40-70%, + 10-40%, - <10%).
Assay [20] addresses T2, mouse CX3CR1. In words: flow cytometry, CX3CR1-expressing Ba/F3 cells, relative to Synagis.
Assay [21] deals with T3, rat CX3CR1. The description is as above.

B1: h1F8-2-1 (antibody, V domains shown)
VH: QVQLVQSGAEVKKPGSSVKVSCKASGFTFTNYWMQWIRQAPGQGLEWIGAIYPGSGESRYTRKFKGRATITADKSTSTAYMELSSLRSEDTAVYYCARWAGYSRNAAYWGQGTLVTVSS
VL: DIVMTQTPLSLPVTPGEPASISCRSRQSIVHSSGNTYLEWYLQKPGQSPQLLIYKVSNRFSGVPDRFSGSGSGTDFTLKISRVEAEDVGVYYCFQGSHIPPTFGGGTKVEIK
notes: Humanized antibody; also called humanized 1F8 antibody h1F8-2-1
As for B1, the “Cell migration inhibitory activity (IC50, nM)” value in assay [1] amounted to 2.02 nM. This molecule also showed an EC50 in [2] of 4.42 nM.

B2: m1F8-1 antibody (antibody, V domains shown)
VH: QVQLQQSGAELARPGASVKLSCKASGFTFTNYWMQWIKQRPGQGLEWIGAIYPGSGESRYTRKFKGKATLTADKSSSTAYMQLNSLASEDSAVYYCARWAGYSRNAAYWGQGTLVTVSA
VL: B1 VL with I2V, V3L, T14S, P15L, E17D, P18Q, R26S, Q50K, V88L, V109L
notes: also called activity-enhanced m1F8 antibody
As for B2, the “Cell migration inhibitory activity (IC50, nM)” value in assay [3] was determined as 5.32 nM. Moreover, the binding result in assay [4] and in assay [5] was “no binding (tested: <10% of positive antibody at 200 nM)” each time. In addition, the “relative measured value (flow cytometry reactivity, MFI) compared to positive antibody at 200 nM” value (from here on “relative measured value”) in assay [6] is < 10%; in [7], < 10%; in assay [8], < 10%; in [9] it was < 10%; in [11], > 70%; in assay [12], 40 to 70%. Also, the “relative measured value” value in [13], in assay [14], in assay [15] and in assay [16] was > 70% in each case. The same molecule registered an EC50 in [10] of 6.69 nM.

B3: m1F8-2 antibody (antibody, V domains shown)
VH: B2 VH
VL: B1 VL with I2V, V3L, T14S, P15L, E17D, P18Q, Q50K, V88L, V109L
notes: as for B2
B3: the “improvement in inhibitory activity against fractalkine-dependent cell migration compared to the original m1F8 antibody” value in assay [17] is ≥ 15 fold. Further, the “Cell migration inhibitory activity (IC50, nM)” value in [3] came out at 2.96 nM. The binding result in [4] and in assay [5] was “no binding (tested: <10% of positive antibody at 200 nM)” in each case. Moreover, the “relative measured value” value in assay [6] was < 10%; in [7], < 10%; in assay [8], < 10%; in assay [11] it was > 70%; in assay [12] it was 40 to 70%; in [13], > 70%. In addition, the “relative measured value” value in assay [14] is > 70%; in assay [15] it was > 70%; in [16], > 70%; in assay [19] it was 10 to 40%. In assay [10], this molecule displayed an EC50 of 2.67 nM. The “fold improvement in binding activity compared to the original m1F8 antibody” value in assay [18] was ≥ 70 fold.

B4: h1F8-2-4 (antibody, V domains shown)
VH: B1 VH with A68V
VL: B1 VL
notes: Humanized antibody; also called humanized 1F8 antibody h1F8-2-4
For B4, the “Cell migration inhibitory activity (IC50, nM)” value in [1] is 2.61 nM. The molecule further gave an EC50 in [2] of 4.42 nM.

B5: h1F8-2-3 (antibody, V domains shown)
VH: B1 VH with I70L
VL: B1 VL
notes: Humanized antibody; also called humanized 1F8 antibody h1F8-2-3
With B5, the “Cell migration inhibitory activity (IC50, nM)” value in assay [1] worked out at 1.4 nM. The same molecule gave an EC50 in [2] of 4.02 nM.

B6: h1F8-2-2 antibody (antibody, IgG1, V domains shown)
VH: B1 VH with R67K
VL: B1 VL
notes: Humanized antibody; also called humanized 1F8 antibody (h1F8-2-2)
Take B6: in assay [1], the “Cell migration inhibitory activity (IC50, nM)” value stood at 1.27 nM. Moreover, the EC50 in assay [2] came to 3.1 nM. Also, the binding result in [20] and in [21] was “no binding” in each case.
